± gives the uncertainty stated by the source.
Test: self-splicing fitness, log relative to wild type (ln ratio); higher = more splicing; Tetrahymena group I intron in knt gene, E. coli kanamycin selection, DiMSum; sequences stand for … in CUCUCU…GGAGGGAAAAGUUAUCAGGCAUGCACCUGGUAGCUAGUCUUUAAACCAAUAGAUUGCAUCGGUUUAAAAGGCAAGACCGUCAAAUUGCGGGAAAGGGGUCAACAGCCGUUCAGUACCAAGUCUCAGGGGAAACUUUGAGAUGGCCUUGCAAAGGGUAUGGUAAUAAGCUGACGGACAUGGUCCUAACCACGCAGCCAAGUCCUAAGUCAACAGAUCUUCUGUUGAUAUGGAUGCAGUUCACAGACUAAAUGUCGGUCGGGGAAGAUGUAUUCUUCUCAUAAGAUAUAGUCGGACCUCUCCUUAAUGGGAGCUAGCGGAUGAAGUGAUGCAACACUGGAGCCGCUGGGAACUAAUUUGUAUGCGAAAGUAUAUUGAUUAGUUUUGGAGUACUCGUGGUCG
Outline: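 Six replicate transformations of E. coli BL21(DE3) with a pET-22b(+) library were grown overnight at 37°C or 30°C. The library randomised all eight P1ex-region intron nucleotides, the intron lying in the knt kanamycin-resistance gene, and plates were LB agar with or without 25 μg/mL kanamycin plus 100 μg/mL carbenicillin, 50 μM IPTG and 0.2% rhamnose. Pooled colonies were amplicon-sequenced on an Illumina HiSeq 2500, and fitness is the DiMSum error-weighted combination of wild-type-normalised replicate fold changes, kanamycin versus none.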

Sequence	self-splicing fitness (ln) (30 °C)	self-splicing fitness (ln) (37 °C)
ACCAAGCAAUAUUACGUCCG	-1.19 ± 0.072	-1.19 ± 0.11
ACCAAGCAAUAUUACGUGGC	-3.68 ± 0.18	-2.94 ± 0.18
ACCAAGCAAUAUUACGUUCC	-3.95 ± 0.16	-1.37 ± 0.12
ACCAAGCAAUAUUACGUUCG	-1.88 ± 0.07	-0.644 ± 0.093
ACCAAGCAAUAUUACGUUUC	-4.28 ± 0.17	-2.55 ± 0.14
ACCCAGCAAUAUUACGAAUU	-1.63 ± 0.075	-0.951 ± 0.094
ACCCAGCAAUAUUACGACCA	-0.474 ± 0.1	-0.703 ± 0.14
ACCCAGCAAUAUUACGACUG	-2.87 ± 0.23	-2.72 ± 0.41
ACCCAGCAAUAUUACGAGAA	-1.61 ± 0.23	-1.24 ± 0.21
ACCCAGCAAUAUUACGAUCG	-1.92 ± 0.073	-0.696 ± 0.096
ACCCAGCAAUAUUACGCAGA	-1.02 ± 0.068	-0.231 ± 0.072
ACCCAGCAAUAUUACGCCAU	-4.24 ± 0.23	-1.88 ± 0.16
ACCCAGCAAUAUUACGCCUA	-1.15 ± 0.073	-0.478 ± 0.07
ACCCAGCAAUAUUACGCGAG	-1.63 ± 0.078	-0.948 ± 0.1
ACCCAGCAAUAUUACGCGGU	-3.41 ± 0.18	-3.42 ± 0.21
ACCCAGCAAUAUUACGCUCG	-3.65 ± 0.33	-2.23 ± 0.26
ACCCAGCAAUAUUACGGAAC	-1.91 ± 0.058	-0.721 ± 0.066
ACCCAGCAAUAUUACGGAGC	-1.06 ± 0.083	-0.369 ± 0.1
ACCCAGCAAUAUUACGGAGG	-2.1 ± 0.098	-1.35 ± 0.12
ACCCAGCAAUAUUACGGAGU	-3.7 ± 0.14	-1.8 ± 0.1
ACCCAGCAAUAUUACGGCCC	-0.0475 ± 0.11	-0.539 ± 0.15
ACCCAGCAAUAUUACGGCGC	-0.619 ± 0.062	0.132 ± 0.096
ACCCAGCAAUAUUACGGCGG	-2.11 ± 0.08	-1.04 ± 0.11

From the supplement of paper PMC7877785
